Measurements reported in the supplement of paper PMC10126150.
± gives the standard deviation of the averaged measurements.

Tested on: ATP
Test: switch fluorescence ratio, 500 uM ATP over buffer (Cy3 cluster intensity, sum of 5 cycles each) (fold (ratio)); higher = stronger signal-on switching upon ATP binding; sequences stand for … in TCGTCGGCAGCGTCAGATGTGTATAAGAGACAGTTTTTTTTTTTTTTTTTTTTTTTTT…TC
Settings: aptamer strand: ATP DNA aptamer (quencher-CACCTGGGGGAGTATTGCGGAGGAAGG + anchor), 100 nM annealed; ATP concentration: 500 uM
How it was run: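 Imaging in selection buffer was followed by imaging after 15 min with 500 uM ATP at 22 °C, for Cy3-labelled switching-strand clusters annealed to 100 nM quencher-labelled ATP aptamer on a modified Illumina MiSeq flow-cell. Five of these buffer/ATP cycles ran, separated by NaOH stripping and re-annealing. The fluorescence ratio per cluster is summed target-cycle over summed buffer-cycle Cy3 intensity, averaged per switch-domain sequence; clusters outside 100-1000 RFU were removed.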
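Also: ATP exposure 15 min at 22 °C before imaging.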

Sequence | switch fluorescence ratio
ATTCAATCGG | 0.98 ± 0.024
ATTCAATTGT | 0.974 ± 0.013
ATTCACTCGT | 1.11 ± 0.13
ATTCACTCTA | 1.08 ± 0.026
ATTCAGGTGT | 2.66 ± 0.29
ATTCATAGTA | 0.9772 ± 0.0064
ATTCATCGCT | 1.0258 ± 0.00018
ATTCATGAT | 0.969 ± 0.044
ATTCATTTTA | 0.999 ± 0.034
ATTCCATTTG | 1.03 ± 0.05
ATTCCGGGCT | 1.05 ± 0.031
ATTCCGGTCT | 0.978 ± 0.011
ATTCCTAACA | 1.008 ± 0.0089
ATTCCTAGGT | 1.33 ± 0.45
ATTCCTCTAG | 1.318 ± 0.0041
ATTCCTGGGA | 1.03 ± 0.018
ATTCCTGGGC | 1.03 ± 0.027
ATTCCTTTGT | 1.01 ± 0.026
ATTCGATATG | 0.997 ± 0.011
ATTCGCTTTT | 1 ± 0.042
ATTCGGGGAC | 1.058 ± 0.009
ATTCGGGGTG | 1.05 ± 0.11
ATTCGGGTTG | 0.985 ± 0.029

Sequence | switch fluorescence ratio
ATTCGTATGT | 1.03 ± 0.03
ATTCGTGGGG | 0.97 ± 0.032
ATTCTAACGA | 1.032 ± 0.0036
ATTCTACTGA | 1.06 ± 0.062
ATTCTACTTA | 1.01 ± 0.018
ATTCTCGTGC | 1.012 ± 0.0074
ATTCTGACAC | 1.07 ± 0.028
ATTCTGGGGG | 1.04 ± 0.048
ATTCTGTACG | 1.05 ± 0.023
ATTCTGTCGT | 1 ± 0.021
ATTCTGTGGT | 0.97 ± 0.019
ATTCTTAATG | 1.01 ± 0.021
ATTCTTTGCC | 1.003 ± 0.006
ATTGAAGGGT | 0.981 ± 0.034
ATTGAATATT | 0.9935 ± 0.0015
ATTGAATCAT | 1.005 ± 0.0033
ATTGAATTAA | 1.04 ± 0.02
ATTGAATTGT | 0.991 ± 0.037
ATTGAGCCTG | 0.991 ± 0.022
ATTGAGGAGA | 0.999 ± 0.033
ATTGAGGCAG | 0.9824 ± 0.0028
ATTGAGGTTT | 0.992 ± 0.022
ATTGAGTTCT | 1 ± 0.012

Sequence | switch fluorescence ratio
ATTGATATGG | 0.981 ± 0.04
ATTGATCGAT | 1.02 ± 0.035
ATTGATGT | 1.0234 ± 0.00096
ATTGATTAAC | 1.013 ± 0.0043
ATTGATTAGA | 0.99 ± 0.043
ATTGATTC | 0.9868 ± 0.0031
ATTGATTGTG | 0.983 ± 0.026
ATTGATTTGC | 0.997 ± 0.058
ATTGCATAAT | 1.06 ± 0.078
ATTGCATTTT | 1.28 ± 0.43
ATTGCCCGCG | 1.0228 ± 0.00058
ATTGCCGTCA | 0.998 ± 0.024
ATTGCGGGCA | 0.982 ± 0.035
ATTGCGTTAT | 1.03 ± 0.018
ATTGCTGGGT | 0.985 ± 0.033
ATTGCTGTAC | 1.56 ± 0.048
ATTGCTGTTC | 1.03 ± 0.037
ATTGCTTTGG | 0.9976 ± 0.0015
ATTGGAAAGG | 0.985 ± 0.031
ATTGGAAGTT | 0.997 ± 0.014
ATTGGAATGC | 1.26 ± 0.047
ATTGGAATTG | 1.02 ± 0.035
ATTGGAGTCG | 0.9477 ± 0.0084

Sequence | switch fluorescence ratio
ATTGGATAGG | 1.01 ± 0.012
ATTGGCAATA | 2.36 ± 1.9
ATTGGCACGC | 1.36 ± 0.42
ATTGGCAGGC | 1.05 ± 0.057
ATTGGGAGAG | 1.02 ± 0.035
ATTGGGAGC | 0.956 ± 0.015
ATTGGGATT | 0.966 ± 0.046
ATTGGGCATT | 1.018 ± 0.006
ATTGGGGAAG | 0.996 ± 0.049
ATTGGGGACT | 1.01 ± 0.019
ATTGGGGAT | 1.02 ± 0.018
ATTGGGGCCG | 1.01 ± 0.016
ATTGGGGCTG | 0.9677 ± 0.006
ATTGGGGGT | 1.026 ± 0.0062
ATTGGGGGTC | 0.995 ± 0.05
ATTGGGTAGG | 0.993 ± 0.025
ATTGGTACTT | 0.986 ± 0.058
ATTGGTATGC | 1.03 ± 0.011
ATTGGTCCTG | 0.999 ± 0.02
ATTGGTCTCA | 0.975 ± 0.023
ATTGGTTAAA | 1 ± 0.026
ATTGTAACAA | 1.037 ± 0.0089
ATTGTAAGAT | 0.994 ± 0.027

Sequence | switch fluorescence ratio
ATTGTAGGAC | 1.01 ± 0.036
ATTGTCATGT | 1.047 ± 0.0062
ATTGTCTATA | 0.981 ± 0.011
ATTGTGAGGT | 0.992 ± 0.039
ATTGTGGGTC | 1.04 ± 0.02
ATTGTGGTTT | 1.01 ± 0.034
ATTGTGTCTG | 1 ± 0.042
ATTGTTATAT | 1 ± 0.03
ATTGTTATCG | 1.02 ± 0.14
ATTGTTTAAT | 1.03 ± 0.017
ATTGTTTGAT | 1.01 ± 0.022
ATTGTTTGCA | 1.02 ± 0.056
ATTGTTTGGC | 1 ± 0.027
ATTGTTTTTA | 0.998 ± 0.033
ATTGTTTTTT | 0.995 ± 0.01
ATTTAAGTGC | 0.981 ± 0.049
ATTTAAGTTG | 0.987 ± 0.015
ATTTAATGAA | 0.982 ± 0.021
ATTTAATTCT | 0.9981 ± 0.0077
ATTTACCCTG | 1.08 ± 0.022
ATTTACGCCT | 1.12 ± 0.05
ATTTACGTAT | 1.06 ± 0.044
ATTTACGTCT | 1.04 ± 0.056

Sequence | switch fluorescence ratio
ATTTAGACTA | 1.01 ± 0.027
ATTTAGGACA | 1.01 ± 0.021
ATTTAGGCAT | 0.987 ± 0.042
ATTTAGGGGA | 1.04 ± 0.056
ATTTAGTAGT | 0.994 ± 0.057
ATTTAGTATC | 1.09 ± 0.14
ATTTAGTGTT | 1 ± 0.024
ATTTAGTTTC | 0.976 ± 0.026
ATTTATACTG | 1.05 ± 0.052
ATTTATCCAA | 1 ± 0.039
ATTTATCCAC | 1.01 ± 0.046
ATTTATCCTC | 1.05 ± 0.029
ATTTATCGCA | 1.011 ± 0.0041
ATTTATCTGA | 0.99 ± 0.016
ATTTATGAAA | 1.04 ± 0.054
ATTTATGAG | 0.977 ± 0.036
ATTTATGGGT | 0.987 ± 0.029
ATTTATGTGT | 1.01 ± 0.057
ATTTATTTAG | 0.987 ± 0.022
ATTTCACTCG | 1.01 ± 0.036
ATTTCATCGT | 1.03 ± 0.012
ATTTCCTTTG | 1.021 ± 0.006
ATTTCGGA | 0.975 ± 0.034

Sequence | switch fluorescence ratio
ATTTCGGTGC | 1.1 ± 0.17
ATTTCGGTTG | 0.989 ± 0.026
ATTTCGTCGT | 1.01 ± 0.03
ATTTCGTTGC | 1.06 ± 0.058
ATTTCTAATT | 1.07 ± 0.15
ATTTCTATTT | 1.01 ± 0.059
ATTTCTTTTG | 1.02 ± 0.056
ATTTGAAAGT | 1.02 ± 0.011
ATTTGACGGT | 1.07 ± 0.11
ATTTGACGTT | 1.003 ± 0.006
ATTTGAGGGT | 0.986 ± 0.021
ATTTGAGTAT | 1.004 ± 0.0093
ATTTGATGGG | 0.977 ± 0.03
ATTTGCCGAC | 0.975 ± 0.019
ATTTGCGGAG | 1.002 ± 0.0057
ATTTGGCCGG | 1.01 ± 0.04
ATTTGGCGCT | 0.994 ± 0.059
ATTTGGCTGT | 0.997 ± 0.023
ATTTGGGCCT | 1.02 ± 0.032
